From patent publication US20090062197A1 (FULCRUM SP, published 2009) come the findings set out here.

The labels stand for the following.
B1: CRGD SP1 (tumor recognition peptide CRGD inserted into the SP1 N-terminus) (other)
chain: MCRGDATRTPKLVKHTLLTRFKDEITREQIDNYINDYTNLLDLIPSMKSFNWGTDLGMESAELNRGYTHAFESTFESKSGLQEYLDSAALAAFAEGFLPTLSQRLVIDYFLY
notes: also called CRGD2
B2: RGDC SP1 (tumor recognition peptide RGDC inserted into the SP1 N-terminus) (other)
chain: B1 chain with C2R, R3G, G4D, D5C
notes: also called RGDC2
B3: SP1 variant Δ2-6 His2 (other)
chain: MHKLVKHTLLTRFKDEITREQIDNYINDYTNLLDLIPSMKSFNWGTDLGMESAELNRGYTHAFESTFESKSGLQEYLDSAALAAFAEGFLPTLSQRLVIDYFLY
B4: SP1 variant Cys2loop1RGd (Cys2 K18R Gly19) (other)
chain: MCATRTPKLVKHTLLTRFRGDEITREQIDNYINDYTNLLDLIPSMKSFNWGTDLGMESAELNRGYTHAFESTFESKSGLQEYLDSAALAAFAEGFLPTLSQRLVIDYFLY
B5: SP1 variant F106A 6XH2 (other)
chain: MHHHHHHATRTPKLVKHTLLTRFKDEITREQIDNYINDYTNLLDLIPSMKSFNWGTDLGMESAELNRGYTHAFESTFESKSGLQEYLDSAALAAFAEGFLPTLSQRLVIDYALY
B6: 6HSP1 (six histidine N-terminal tagged SP1) (other)
chain: B5 chain with A112F
notes: also called 6H2; SP1 6H
B7: SP1 variant N31A T34A 6XH2 (other)
chain: B5 chain with N37A, T40A, A112F
B8: SP1 variant D38A S75A 6XH2 (other)
chain: B5 chain with D44A, S81A, A112F
B9: SP1 variant S73A S75A 6XH2 (other)
chain: B5 chain with S79A, S81A, A112F
B10: SP1 variant HH2 (other)
chain: MHHATRTPKLVKHTLLTRFKDEITREQIDNYINDYTNLLDLIPSMKSFNWGTDLGMESAELNRGYTHAFESTFESKSGLQEYLDSAALAAFAEGFLPTLSQRLVIDYFLY
B11: SP1 (wild type, stress related SP1 protein from aspen) (other)
chain: MATRTPKLVKHTLLTRFKDEITREQIDNYINDYTNLLDLIPSMKSFNWGTDLGMESAELNRGYTHAFESTFESKSGLQEYLDSAALAAFAEGFLPTLSQRLVIDYFLY
notes: Full length SP1 without any additional tag, expressed in E. coli; it self-assembles into a dodecamer; also called WT; wild type SP1
B12: SP1 variant Y108A (other)
chain: B11 chain with Y108A
B13: SP1 variant R23A (other)
chain: B11 chain with R23A
B14: SP1 variant N31A (other)
chain: B11 chain with N31A
B15: SP1 variant E68A (other)
chain: B11 chain with E68A
B16: SP1 variant I30A (other)
chain: B11 chain with I30A
B17: SP1 variant D38A (other)
chain: B11 chain with D38A
B18: SP1 variant D27A (other)
chain: B11 chain with D27A
B19: SP1 variant T34A (other)
chain: B11 chain with T34A
B20: SP1 variant Δ2-6 I40C (other)
chain: MKLVKHTLLTRFKDEITREQIDNYINDYTNLLDLCPSMKSFNWGTDLGMESAELNRGYTHAFESTFESKSGLQEYLDSAALAAFAEGFLPTLSQRLVIDYFLY
B21: SP1 variant Δ2-6 E72C (other)
chain: B20 chain with C35I, E67C
B22: SP1 variant Δ2-7 Cys2 (other)
chain: B20 chain with K2C, C35I
B23: ΔNSP1 (N-terminal deleted SP1, deletion of amino acids 2-6) (other)
chain: B20 chain with C35I
notes: Recombinant variant, E. coli; also called Δ2-6; SP1 ΔN
B24: SP1 variant Δ2-6 L81C (other)
chain: B20 chain with C35I, L76C

Data set [1] concerns the molecule itself. The data set can be described thus: homo-oligomer complex formation, SDS-PAGE of unboiled samples.
Data set [2] deals with the molecule itself. The data set can be described thus: homo-oligomer complex formation after inclusion body refolding, SDS-PAGE, proteinase digestion of monomers.
Protocol: The pellet (FIG. 5a, lane 3) was discarded, and the supernatant was collected and dialyzed against buffer with 2 mM DTT for four days (FIG. 5a, lane 4).
The target in data set [3] is B23. The data set can be described thus: co-electro-elution of monomers, Ni-NTA pull-down, Proteinase K, SDS-PAGE.
Protocol: Protein samples were prepared in SDS-sample buffer with excess ratio of SDS to the sample, either boiled (b) for 5 min, or without boiling (nb). […] The hetero-oligomeric complex was isolated on Ni-NTA Agarose beads (lanes 6 and 7).
The denatured proteins were then separated in preparative SDS-PAGE, and visualized by Coomassie blue staining. The monomeric forms of two recombinant protein bands were excised. […] In order to enhance the surface/volume ratio, the gel slices were pulverized using a pestle and mortar in the presence of liquid nitrogen.
Data set [4] deals with the molecule itself. The data set can be described thus: homo-oligomer complex formation after inclusion body refolding (footnote 10), SDS-PAGE, proteinase digestion of monomers.
Description: Complex assembly was confirmed by eliminating the monomeric forms using proteinase digestion.

Substitutions are numbered along the chain they refer to. Numbers in names are those of the source.

As for B1, the binding result in data set [1] was “binds”.
The same measure, in the same setting: as for B2, the entry is “binds”; as for B3, “binds”.
B4: in data set [2], the binding result is recorded as “binds”.
In the case of B5, in data set [1], the binding result is recorded as “binds”.
As to B6, the binding result in data set [3] and in data set [1] was “binds” throughout.
For B7, the binding result in data set [1] is reported as “binds”.
For the molecule B8, the binding result in data set [1] is “binds”.
Still for that read-out and setting: as for B9, the entry is “binds”.
Still for that read-out and setting: as for B10, the entry is “binds”.
Same read-out and setting: with B11 the entry was “binds”; with B12, “binds”; with B13, “binds”.
For B14, the binding result in data set [1] is on record as “binds”.
Still for that read-out and setting: with B15 the entry was “binds”; with B16, “binds”; with B17, “binds”.
On the same count and under the same terms, with B18 the entry was “binds”; with B19, “binds”; with B20, “binds”.
For B21, the binding result in data set [4] is on record as “binds”.
Turning to B22, the binding result in data set [1] was “binds”.
On the same count and under the same terms, as for B23, the entry is “binds”.
As for B24, the binding result in data set [2] is listed as “binds”.
